Measurements reported in patent publication US20160223545A1.

What was measured:
[1] = molecular target: T1, phosphorylated Villin (UniProt P09327); assay: multiplate ELISA, P-Villin coated, GST-Jak3-G257 titrated, anti-GST detection
T1 sequence (tyrosine phosphorylated by expression in E. coli TKX1; sites not stated, looked up): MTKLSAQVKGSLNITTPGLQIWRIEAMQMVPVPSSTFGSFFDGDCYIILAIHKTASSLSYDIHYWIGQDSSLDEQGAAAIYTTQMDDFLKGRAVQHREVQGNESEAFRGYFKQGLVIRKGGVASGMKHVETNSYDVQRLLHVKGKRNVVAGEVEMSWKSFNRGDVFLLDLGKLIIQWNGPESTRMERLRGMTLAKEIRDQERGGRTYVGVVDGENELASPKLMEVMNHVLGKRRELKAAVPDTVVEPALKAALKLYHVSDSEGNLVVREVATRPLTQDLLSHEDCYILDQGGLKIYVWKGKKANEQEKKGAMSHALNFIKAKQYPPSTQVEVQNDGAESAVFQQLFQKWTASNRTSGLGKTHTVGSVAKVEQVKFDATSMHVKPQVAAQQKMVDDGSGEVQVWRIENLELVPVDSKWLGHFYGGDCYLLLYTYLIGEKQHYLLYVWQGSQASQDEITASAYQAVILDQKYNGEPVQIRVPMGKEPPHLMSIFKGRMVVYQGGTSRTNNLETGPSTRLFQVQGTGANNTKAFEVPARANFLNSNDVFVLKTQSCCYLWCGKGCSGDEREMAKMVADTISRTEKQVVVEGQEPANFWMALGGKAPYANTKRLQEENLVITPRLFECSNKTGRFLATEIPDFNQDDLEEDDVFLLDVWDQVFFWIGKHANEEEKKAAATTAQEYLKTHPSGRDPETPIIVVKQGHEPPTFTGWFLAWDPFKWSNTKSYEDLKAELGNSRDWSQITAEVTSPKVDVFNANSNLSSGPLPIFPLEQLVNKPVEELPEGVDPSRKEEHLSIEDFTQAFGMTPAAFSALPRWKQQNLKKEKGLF

[2] = molecular target: phosphorylated adapter protein p52ShcA (UniProt P29353); assay: multiplate ELISA, comparison of Kd values
[3] = molecular target: T1, phosphorylated Villin; assay: multiplate ELISA, P-Villin coated, GST-P-Jak3 titrated, anti-GST detection, GST-alone control subtracted
[4] = molecular target: phosphorylated adapter protein p52ShcA (UniProt P29353); assay: multiplate ELISA, P-p52ShcA coated, GST-P-Jak3 titrated, anti-GST detection

| Kd [1] [nM] | fold weaker than P-Jak3 binding with P-Villin [2] [fold] | Kd [3] [nM] | Kd [4] [nM] | Substance |
| --- | --- | --- | --- | --- |
| 40 |  |  |  | GST-truncated Jak3 fusion protein lacking the JH1, JH2, JH3 and JH4 domains |
|  | 10 | 23 | 220 | phosphorylated GST-WT-Jak3 fusion protein (enzyme) |
